Source: patent US20030148264A1, “Phage displayed PDZ domain ligands” (GENENTECH, INC., priority 2001, published 2003)
Like-named read-outs stand apart in the source and are kept apart here. Where a SMILES comes first, the peptide text is derived from it. Where no end group is shown, it is not given here.

Experiments:
[1] = molecular target: T1, hZO1 PDZ1 (Homo sapiens, UniProt Q07157); assay: IC50 (nM) | hZO1 PDZ1 | 5 nM | B01-88 | Bio-GGWRWTTWL (SEQ ID NO: 684) | 36 nM
T1 construct: Human ZO1 (NM_003257) PDZ1; GST; made in house
Procedure: Table printed on a drawing sheet, FIG. 12A
Head of the field: IC50 (nM) | hZO1 PDZ1 | 5 nM | B01-88 | Bio-GGWRWTTWL (SEQ ID NO: 684) | 36 nM
(§1) The patent's description of the figure: FIG. 12. IC50 values indicating binding affinities of various peptides to PDZ domains
First copying reader's note: Upper left part of a table split over FIG. 12A-12D; further receptor columns and further peptides are on the other sheets.
(§2) Where the first naming reader finds the target: head: IC50 (nM) | hZO1 PDZ1 | 5 nM | B01-88

[2] = molecular target: T2, Erbin PDZ (Homo sapiens, UniProt Q96RT1); assay: IC50 (nM) | Erbin PDZ | 2 nM | PDZ501 | Bio-Ac-GGWETWV (SEQ ID NO 687) | 37 nM
T2 construct: made in house; host or cells: E. coli
Procedure: (§3) Table printed on a drawing sheet, Fig. 12
as §1
(§4) First copying reader's note: The first column (three lines per block: protein, accession, PDZ domain) is treated as one cell spanning its block; an empty ruled row above the IC50/SD head is left out; #### cells are spreadsheet overflow marks as printed; several heads and cells are cut off at the left by the print (ample, eptide No, EQ ID NO).
Where the first naming reader finds the target: head: IC50 (nM) | Erbin PDZ | 2 nM | PDZ501

[3] = system: Magi1 PDZ3; assay: IC50 (nM) | Magi1 PDZ3 | 0.625 nM | B01-87 | Bio-GGWFLDV (SEQ ID NO 686) | 15.62 nM
Procedure: as §3
Head of the field: IC50 (nM) | Magi1 PDZ3 | 0.625 nM | B01-87 | Bio-GGWFLDV (SEQ ID NO 686) | 15.62 nM
as §1, §4
Where the first naming reader finds the target: head: IC50 (nM) | Magi1 PDZ3 | 0.625 nM | B01-87

[4] = molecular target: GST-MAGI-3 PDZ 2 (aa. 584-707 of SEQ ID NO:200) (human) [GST: P08515]; assay: alanine scan, competition ELISA
[5] = molecular target: GST-MAGI-3 PDZ 2 (aa. 584-707 of SEQ ID NO:200) (human) [GST: P08515]; assay: competition ELISA: peptide blocks GST-PDZ binding to immobilized peptide
[6] = molecular target: T3, MAGI 3 PDZ2 (Homo sapiens, UniProt Q5TCQ9); assay: Competition ELISA, peptide blocking PDZ domain binding to immobilized peptide; parameters: made in house; host or cells: E. coli
T3 sequence (Q5TCQ9 584-707 isoform Q5TCQ9-2): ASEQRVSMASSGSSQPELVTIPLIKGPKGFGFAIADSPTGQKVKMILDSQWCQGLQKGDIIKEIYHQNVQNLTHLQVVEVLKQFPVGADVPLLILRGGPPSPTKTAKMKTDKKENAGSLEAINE
Description: (§5) Many methods are known and can be used to identify the binding affinities of PDZ domain binding ligands (e.g. peptides, proteins, small mollecules, etc.); for example, binding affinities can be determined as IC50 values using competition ELISAs. The IC50 value is defined as the concentration of ligand which blocks 50% of PDZ domain binding to a ligand. For example, in solid phase assays, assay plates may be prepared by coating microwell plates (preferably treated to efficiently absorb protein) with neutravidin, avidin or streptavidin. Non-specific binding sites are then blocked through addition of a solution of bovine serum albumin (BSA) or other proteins (for example, nonfat milk) and then washed, preferably with a buffer containing a detergent, such as Tween-20. A biotinylated known PDZ-domain ligand (for example, the phage peptides or cognate protein as fusions with GST or other such molecule to facilitate purification and detection) is prepared and bound to the plate. Serial delutions of the ligand to be tested with a PDZ domain polypeptide arc prepared and contacted with the bound ligand. The plate coated with the immobilized ligandis washed before adding each binding reaction to the wells and briefly incubated. After further washing, the binding reactions are detected, often with an antibody recognizing the non-PDZ fusion partner and a labeled (such as horseradish peroxidase (HRP), alkaline phosphatase (AP), or a fluorescent tag such as fluorescein) secondary antibody recognizing the primary antibody. The plates are then developed with the appropriate substrate (depending on the label) and the signal quantified, such as using a spectrophotometric plate reader. The absorption signal may be fit to a binding curve using a least squares fit. Thus the ability of the various ligands to inhibit PDZ domain from binding a known PDZ-domain ligand can be measured.
Prokaryotic: The ERBIN PDZ domain (aa. 1217-1371 of SEQ ID NO:201) or MAGI-3 PDZ 2 (aa. 584-707 of SEQ ID NO:200) were cloned into the EcoR 1/Not 1 or BamH 1/Not 1 sites of pGEX 6P-1 and pGEX 4T-3 E. coli expression vectors (Pharmacia) respectively. Expression and affinity purification of E coli expressed GST-proteins was performed as recommended by the manufacturer (Pharmacia).
(§6) Peptides corresponding to the selected sequences were synthesized and assayed for binding (Table 2). […] The data also confirmed that the minimal tetrapeptide selectants from the PDZ2 sort bind PDZ2 with high affinity. […] It appears that this large difference in binding affinity is attributable to the residue at P(−1), which is a Trp in the selected peptide as opposed to a Lys in PTEN/MMAC (compare HTQITWV with HTQITKV (SEQ ID NO:220), Table 2; The IC50 values are the concentrations of peptide that blocked 50% of PDZ domain binding to immobilized peptide in an ELISA).

[7] = molecular target: T1, hZO1 PDZ1; assay: IC50 (nM) | hZO1 PDZ1 | 5 nM | B01-88 | Bio-GGWRWTTWL (SEQ ID NO 684) | 36 nM
Procedure: as §3
Head of the field: IC50 (nM) | hZO1 PDZ1 | 5 nM | B01-88 | Bio-GGWRWTTWL (SEQ ID NO 684) | 36 nM
as §1, §4, §2

[8] = molecular target: T4, MAGI 3 PDZ3 (Homo sapiens, UniProt Q5TCQ9); assay: Competition ELISA, peptide blocking PDZ domain binding to immobilized peptide
T4 construct: PDZ2 and PDZ3 were purified as glutathione S-transferase (GST) fusions from E coli; GST; made in house; host or cells: E. coli
Description: as §5, §6

[9] = molecular target: T5, Human Scribble (KIAA0147, NP_056171.1) PDZ2 (aa 788-913) (Homo sapiens, UniProt Q14160); assay: Carboxyl-terminal phage display binding selection; settings: number of phage-selected clones with this sequence, siblings counted as individuals
T5 construct: Human Scribble (KIAA0147, NP_056171.1) PDZ2 (aa 788-913); GST; made in house
T5 sequence (Q14160 788-913 isoform Q14160-2): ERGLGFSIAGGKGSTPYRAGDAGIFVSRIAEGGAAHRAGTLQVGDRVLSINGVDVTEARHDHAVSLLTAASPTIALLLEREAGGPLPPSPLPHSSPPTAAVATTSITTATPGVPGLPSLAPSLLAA
Description: Phage display technology was further employed essentially as described above, with minor modifications, to select ligands of a variety of PDZ domains (including additional, independent rounds of selection for ERBIN PDZ and MAGI3 PDZ3). Briefly, peptide ligands were selected from pools of randomized peptides. […] The peptides were fused to the M13 phage major coat proteins such that the C-termini of the randomized peptides were free and available for binding. PDZ domains were utilized as their GST-fusions (referred to in this Example simply as “PDZ domains”). The particular amino acids comprising each PDZ domain target are indicated in the heading of Tables 11-29.
Peptide ligands were selected and identified for 17 (18 including ERBIN) PDZ domains. […] At the bottom of each table, the occurrence of each amino acid residue is expressed as a percentage of the total number of residues in the relevant position. Siblings (peptides with identical DNA that appear as more than one copy) were counted as individuals. The numbers for occurrence were corrected for codon usage. The relative codon usage is indicated after each amino acid in the header of the bottom section of each table. “n” refers to the number of sequences (siblings counted as individuals) on which the occurrence value is based; this number is also shown as normalized with respect to codon usage.

[10] = molecular target: T6, ERBIN PDZ-GST fusion protein (aa. 1217-1371 of SEQ ID NO:201) (human, UniProt P08515 1-218 = GST); assay: competition ELISA: ERBIN PDZ-GST binding to immobilized biotin-WETWV
[11] = molecular target: T6, ERBIN PDZ-GST fusion protein (aa. …); assay: as above; remark: listed apart in the source
[12] = molecular target: T6, ERBIN PDZ-GST fusion protein (aa. …); assay: as above; remark: listed apart in the source
[13] = MAGI 3 PDZ2, concentration of peptide that blocked 50% of PDZ domain binding to immobilized peptide in an ELISA, read-out: IC50 (μM) PDZ2
[14] = MAGI 3 PDZ3, concentration of peptide that blocked 50% of PDZ domain binding to immobilized peptide in an ELISA, read-out: IC50 (μM) PDZ3

T2 sequence (Q96RT1 1258-1412): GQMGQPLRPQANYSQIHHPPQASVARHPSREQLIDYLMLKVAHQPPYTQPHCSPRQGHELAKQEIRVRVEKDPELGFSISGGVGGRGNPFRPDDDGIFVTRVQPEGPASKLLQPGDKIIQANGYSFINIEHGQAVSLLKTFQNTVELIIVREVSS
T6 sequence (P08515 whole entry, the tested form may be a part): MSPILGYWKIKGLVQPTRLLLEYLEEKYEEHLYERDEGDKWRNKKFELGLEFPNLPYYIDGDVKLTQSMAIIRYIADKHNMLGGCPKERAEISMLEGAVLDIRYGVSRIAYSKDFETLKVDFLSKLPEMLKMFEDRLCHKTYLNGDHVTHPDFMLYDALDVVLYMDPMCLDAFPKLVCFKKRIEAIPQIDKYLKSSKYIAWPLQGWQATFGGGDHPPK
GST-MAGI-3 PDZ 2 (aa. 584-707 of SEQ ID NO:200) (human) [GST: P08515], sequence (P08515 whole entry, the tested form may be a part): as above
T4 sequence (Q5TCQ9 726-808 limits assumed): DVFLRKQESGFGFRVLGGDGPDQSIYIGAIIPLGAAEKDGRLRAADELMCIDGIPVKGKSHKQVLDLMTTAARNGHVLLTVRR
T1 sequence (Q07157 23-110): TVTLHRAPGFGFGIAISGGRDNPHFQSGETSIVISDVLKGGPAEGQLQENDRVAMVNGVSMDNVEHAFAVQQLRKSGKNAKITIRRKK

Ac-FETWL [3 | 01-08, SEQ ID NO: 642: N^AC-FETWL]
IC50 [1]: 10400 nM

AWFDTDL [2 | 01-61, SEQ ID NO 641 AWFDTDL]
IC50 [2]: 25400 nM
IC50 [3]: 18200 nM

CSAV (peptide)
fold reduction in binding against CSWV [4]: > 100 fold
IC50 [5]: 200 µM

CC[C@H](C)[C@H](N)C(=O)N[C@H](C(=O)N[C@@H](CCCCN)C(=O)N[C@H](C(=O)O)C(C)C)[C@@H](C)O [ITKV, reference compound] (H-ITKV-OH; N-terminus and C-terminus assumed)
IC50 ([6]; MAGI 3 PDZ2 domain, read-out: IC50): 200 µM

Ac-YRWTTWL [10 | 01-28, SEQ ID NO: 649: N^AC-YRWTTWL]
IC50 [1]: 31 nM

SEQ ID NO 671 NAC-WFLDI [32 | 01-14]
IC50 [3]: 408 ± 50 nM

EQ ID NO 649 N^AC-YRWTTWL (Ac-YRWTTWL) [10 | 01-28]
IC50 [3]: 32600 nM

EQ ID NO 648 N^AC-WRWTTWL (Ac-WRWTTWL) [9 | 01-103]
IC50 [3]: 180 ± 59 nM

HTQITWV [HTQITWV]
IC50 [6, 13]: 0.3 µM

CSWA (peptide)
fold reduction in binding against CSWV [4]: > 100 fold
IC50 [5]: 400 µM

Ac-WFLDA [42 | 01-22, SEQ ID NO 681 NAC-WFLDA]
IC50 [7]: 21800 nM
IC50 [3]: 410 ± 72 nM

HTQITKV [HTQITKV, reference compound]
IC50 [8, 14]: > 1000 µM
IC50 [6, 13]: 200 µM

DGICSWV [DGICSWV]
IC50 [8]: > 1000 µM
IC50 [6]: 0.3 µM

RKSRTFETWV [phage-selected peptide, Scribble PDZ2]
occurence [9]: 1

TRWWFDI-OH [TRWWFDI]
IC50 [8, 14]: 0.9 µM
IC50 [6, 13]: > 1000 µM

ASWV (peptide)
fold reduction in binding against CSWV [4]: 25 fold
IC50 [5]: 35 µM

Ac-FETDL [1 | 01-104, SEQ ID NO 640 N^AC-FETDL]
IC50 [2]: 101000 nM
IC50 [3]: 91500 nM

Ac-WFLWI [34 | 01-12, SEQ ID NO 673 NAC-WFLWI]
IC50 [2]: > 400000 nM
IC50 [3]: 34700 nM

AWFETWV [phage-selected peptide, Scribble PDZ2]
occurence [9]: 2

ESVRGFDTWV [phage-selected peptide, Scribble PDZ2]
occurence [9]: 1

HRVRETWV [phage-selected peptide, Scribble PDZ2]
occurence [9]: 21

Ac-WRWTTWL [9 | 01-103, SEQ ID NO: 648: N^AC-WRWTTWL]
IC50 [1]: 27 nM

ASKVTWV [ASKVTWV]
IC50 [8]: > 1000 µM
IC50 [6]: 0.8 µM

CAWV (peptide)
fold reduction in binding against CSWV [4]: 5 fold
IC50 [5]: 7.3 µM

GCGCSWV
IC50 [6, 13]: 2 µM

RSRYRFTDV [phage-selected peptide, Scribble PDZ2]
occurence [9]: 6

STGKFFDTWV [phage-selected peptide, Scribble PDZ2]
occurence [9]: 1

LTVRETWV [phage-selected peptide, Scribble PDZ2]
occurence [9]: 4

Ac-WRWTTWV [13 | 01-31, EQ ID NO 652 N^AC-WRWTTWV]
IC50 [2]: 789 ± 62 nM
IC50 [3]: 32600 nM

TRWWFDI-NH2 [TRWWFDI-NH2]
IC50 [8, 14]: 300 µM

Ac-WEVWV [Ac-WEVWV]
IC50 [10]: 4.8 µM
fold less potent than Ac-WETWV [10]: 9.8 fold

Ac-WETAV [Ac-WETAV]
IC50 [11]: 34 µM
fold less potent than Ac-WETWV [11]: 69.3 fold
IC50 [12]: 34 µM
fold less potent than Ac-WETWV [12]: 69.3 fold

Ac-WESWV [Ac-WESWV]
IC50 [10]: 2.5 µM
fold less potent than Ac-WETWV [10]: 5.2 fold

Ac-WETYV [Ac-WETYV]
IC50 [11]: 42.5 µM
fold less potent than Ac-WETWV [11]: 86.7 fold

Ac-WETFV [Ac-WETFV]
IC50 [11]: 14.5 µM
fold less potent than Ac-WETWV [11]: 295 fold

Ac-WDTWV [Ac-WDTWV]
IC50 [10]: 1.7 µM
fold less potent than Ac-WETWV [10]: 3.4 fold
